Experiment [1] concerns the target T1, endogenous Eag1 antigen in MCF7 breast cancer and IPC-298 melanoma cells (Homo sapiens, UniProt O95259).
T1 construct: endogenous in cells; host or cells: MCF7 breast cancer cells, IPC-298 melanoma cells
T1 sequence (O95259 1-989): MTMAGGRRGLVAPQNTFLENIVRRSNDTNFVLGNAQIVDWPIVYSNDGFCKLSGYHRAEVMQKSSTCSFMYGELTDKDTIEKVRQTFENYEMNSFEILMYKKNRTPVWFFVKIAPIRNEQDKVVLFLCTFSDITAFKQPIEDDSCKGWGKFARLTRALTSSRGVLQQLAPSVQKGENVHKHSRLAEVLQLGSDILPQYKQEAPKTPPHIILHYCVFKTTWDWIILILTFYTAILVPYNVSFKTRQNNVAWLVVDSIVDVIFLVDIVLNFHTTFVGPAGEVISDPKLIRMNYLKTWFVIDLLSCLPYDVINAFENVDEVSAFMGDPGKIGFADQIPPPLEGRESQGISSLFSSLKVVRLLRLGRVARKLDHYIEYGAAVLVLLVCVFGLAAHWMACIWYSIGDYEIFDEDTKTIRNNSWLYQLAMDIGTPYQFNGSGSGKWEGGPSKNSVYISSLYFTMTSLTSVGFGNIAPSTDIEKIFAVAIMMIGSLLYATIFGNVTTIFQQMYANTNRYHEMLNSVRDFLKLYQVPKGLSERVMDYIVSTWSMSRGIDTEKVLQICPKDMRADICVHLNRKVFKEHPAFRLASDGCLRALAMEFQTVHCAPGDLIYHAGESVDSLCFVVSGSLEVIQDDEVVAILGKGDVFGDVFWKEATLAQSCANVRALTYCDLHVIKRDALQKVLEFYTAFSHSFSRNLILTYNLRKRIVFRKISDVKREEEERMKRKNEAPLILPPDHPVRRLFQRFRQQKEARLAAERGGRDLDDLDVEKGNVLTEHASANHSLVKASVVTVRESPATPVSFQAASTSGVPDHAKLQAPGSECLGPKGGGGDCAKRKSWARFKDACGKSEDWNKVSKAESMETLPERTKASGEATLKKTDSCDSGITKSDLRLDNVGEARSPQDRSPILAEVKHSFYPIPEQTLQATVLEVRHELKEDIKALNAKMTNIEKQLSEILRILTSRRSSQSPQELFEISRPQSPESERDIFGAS
Put plainly: Immunofluorescence detection of Eag1 antigen in human tumor cells. Type of experiment: cell-based. The settings on record: 2 μg/ml antibody. As for the experimental part: For detection of Eag1 antigen in human tumor cells an Immunofluorescence staining protocol was established. Glass-Chamber slides (Falcon) were pre-coated with 300 μl medium containing 10% FCS at 37° C. for 30 min. 40 000 MCF7 breast cancer cells/well and 40 000 IPC-298 melanoma cells/well were seeded on pre-coated glass chamber slides and cultured at 37° C. in 5% CO2 for 24 h. After removing the chambers, slides were washed with PBS and cells were fixed with 4% Paraformaldehyd (in PBS adjusted to pH 7.5 with 1 M NaOH) at 25° C. for 10 min. Slides were air dried and re-hydrated with PBS for 3 min (3×). Cells were permeabilized with 0.5% Triton-X 100 in PBS for 10 min at 25° C., slides were washed for 3 min in PBS (3×) and each well was blocked with 100 μl blocking buffer (5% FCS, 2.5% BSA in PBS) at 25° C. for 1 hours. 2 μg/ml anti-EAG1 antibody ImAb 4 diluted in 40 μl blocking buffer/well was incubated for 1 h at 25° C., washed 3× with PBS and 50 μl Alexa 546 goat anti-mouse IgG (Molecular Probes; diluted 1:200 in dilution buffer) was incubated as detection antibody for 1 h at 25° C. Slides were washed with PBS (3×), 50 μl DAPI (Roche; diluted 1:1000 in PBS) was added to each well and incubated at 25° C. for 5 min. […]
Staining of the anti-EAG1 antigen with ImAb 4 was analysed using a Fluorescence microscope at 573 nm.

The target in experiment [2] is T2, Eag1 currents (Homo sapiens, UniProt O95259).
T2 construct: expressed in transfected cells; host or cells: HEK293
T2 sequence (O95259 1-962 isoform O95259-2): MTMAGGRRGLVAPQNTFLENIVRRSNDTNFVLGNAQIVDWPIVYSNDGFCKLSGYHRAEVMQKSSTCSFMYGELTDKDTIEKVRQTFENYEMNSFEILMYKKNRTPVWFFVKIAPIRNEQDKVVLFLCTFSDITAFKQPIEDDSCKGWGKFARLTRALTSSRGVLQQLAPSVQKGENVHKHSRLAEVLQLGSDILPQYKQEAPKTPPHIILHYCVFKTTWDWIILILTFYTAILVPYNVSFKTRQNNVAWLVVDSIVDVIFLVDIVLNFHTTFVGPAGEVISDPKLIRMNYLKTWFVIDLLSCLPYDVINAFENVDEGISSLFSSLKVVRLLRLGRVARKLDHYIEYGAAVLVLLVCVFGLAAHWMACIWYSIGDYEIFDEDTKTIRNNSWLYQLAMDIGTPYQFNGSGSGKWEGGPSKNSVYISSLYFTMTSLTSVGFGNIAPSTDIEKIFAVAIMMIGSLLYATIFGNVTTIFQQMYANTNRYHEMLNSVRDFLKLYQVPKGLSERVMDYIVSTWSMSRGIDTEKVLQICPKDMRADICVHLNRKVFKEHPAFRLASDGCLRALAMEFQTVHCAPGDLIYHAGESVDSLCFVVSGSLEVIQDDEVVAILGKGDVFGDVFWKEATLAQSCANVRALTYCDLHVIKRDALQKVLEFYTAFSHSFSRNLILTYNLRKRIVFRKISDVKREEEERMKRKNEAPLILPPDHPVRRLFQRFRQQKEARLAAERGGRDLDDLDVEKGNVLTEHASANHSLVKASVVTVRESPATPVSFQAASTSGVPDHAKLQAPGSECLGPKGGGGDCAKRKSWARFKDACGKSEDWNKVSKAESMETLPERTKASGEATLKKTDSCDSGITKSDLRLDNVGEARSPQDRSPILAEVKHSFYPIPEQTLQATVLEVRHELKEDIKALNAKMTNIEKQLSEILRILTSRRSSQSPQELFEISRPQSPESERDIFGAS
Put plainly: Whole cell patch clamp, Eag1 currents in transfected HEK293 cells. The following applies: 300 nM, control antibody. Type of experiment: cell-based. As for the experimental part:
To characterize effective affinity and specificity of the antibodies, block of Eag1 currents by ImAb3 in transfected HEK293 cells was tested in the whole cell configuration of the patch clamp technique. Currents were elicited by the depicted (FIG. 18a) pulse protocol (depolarization to +40 mV from a holding potential of −80 mV). Once a stable current level had been achieved, the antibody was applied to the bath chamber at a concentration of 300 nM, (approx 45 μg/ml). […] The antibody and the peptide were incubated (1:1 representing approximately 50 times molar excess of the peptide) at room temperature for 1 h and the mixture was used as described for the antibody alone.
A general note: The patch-clamp technique gives a direct electrical read-out from membranes.

B1: ImAb4: mouse monoclonal anti-Eag1 antibody, IgG2b kappa; light chain SEQ ID NO: 2, heavy chain SEQ ID NO: 4 (antibody, listed as Mus musculus)
heavy: MRVLILLWLFTAFPGILSDVQLQESGPGLVKPSQSLSLTCTVTGYSITSDYAWNWIRQFPGNKLEWMGYISYSGSTIYNPSLKSRISITRDTSKNQFFLQLNSVTTEDTATYYCARFGNYGNTLNYWGQGTSVTVSSAKTTPPSVYPLAPGCGDTTGSSVTLGCLVKGYFPESVTVTWNSGSLSSSVHTFPALLQSGLYTMSSSVTVPSSTWPSQTVTCSVAHPASSTTVDKKLEPSGPISTINPCPPCKECHKCPAPNLEGGPSVFIFPPNIKDVLMISLTPKVTCVVVDVSEDDPDVQISWFVNNVEVHTAQTQTHREDYNSTIRVVSTLPIQHQDWMSGKEFKCKVNNKDLPSPIERTISKIKGLVRAPQVYILPPPAEQLSRKDVSLTCLVVGFNPGDISVEWTSNGHTEENYKDTAPVLDSDGSYFIYSKLNMKTSKWEKTDSFSCNVRHEGLKNYYLKKTISRSPGK
light: MKLPVRLLVLMFWIPASSSDVVMTQTPLSLPVSLGDQASISCRSSQSLVHSNGNTYLHWYLQKPGQSPKLLIYKVSNRFSGVPDRFSGSGSGTDFTLKISRVEAEDLGVYFCSQSTHVPPTFGGGTKLEIKRADAAPTVSIFPPSSEQLTSGGASVVCFLNNFYPKDINVKWKIDGSERQNGVLNSWTDQDSKDSTYSMSSTLTLTKDEYERHNSYTCEATHKTSTSPIVKSFNRNEC
On to B1, for which the “preferential binding by cell stage” value in experiment [1] was “preferentially binds to dividing human cancer cells”. Also, the “binding to endogenous Eag1 antigen” value in experiment [1] (fixed permeabilized cells) is “binds to endogenous Eag1 antigen in human cancer cells”. Further, the “effect on current amplitudes” value in experiment [2] is listed as “showed no effect on current amplitudes”.

The values above are taken from patent US7910100B2, “Antibodies directed to the mammalian EAG1 ion channel protein” (Max-Planck-Gesellschaft zur Forderung der Wissen, priority 2004, dated 2011).
